Assay [1] deals with T1, human amylin receptor 3 (hAMYR3), hCTR2 co-expressed with human receptor activity modifying protein 3 (hRAMP3) (human, UniProt P30988 25-474; O60896 24-148).
T1 sequence (looked up) 1: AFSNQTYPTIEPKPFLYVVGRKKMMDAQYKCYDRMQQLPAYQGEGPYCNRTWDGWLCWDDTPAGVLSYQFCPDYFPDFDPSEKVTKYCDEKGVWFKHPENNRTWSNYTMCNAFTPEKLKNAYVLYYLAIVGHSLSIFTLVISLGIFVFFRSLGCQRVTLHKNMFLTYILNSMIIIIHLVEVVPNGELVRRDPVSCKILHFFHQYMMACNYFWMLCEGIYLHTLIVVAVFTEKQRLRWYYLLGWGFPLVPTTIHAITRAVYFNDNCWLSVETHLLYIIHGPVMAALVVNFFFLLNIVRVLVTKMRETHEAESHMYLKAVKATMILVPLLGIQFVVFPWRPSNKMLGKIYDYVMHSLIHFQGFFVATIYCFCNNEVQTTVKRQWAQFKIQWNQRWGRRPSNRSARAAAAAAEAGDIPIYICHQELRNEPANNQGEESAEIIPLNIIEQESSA
T1 sequence (looked up) 2: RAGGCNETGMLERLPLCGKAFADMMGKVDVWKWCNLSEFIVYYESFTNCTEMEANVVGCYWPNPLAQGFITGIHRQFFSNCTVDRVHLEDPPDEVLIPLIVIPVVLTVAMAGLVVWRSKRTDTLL
In words: cell-based or functional assay.

For assay [2], the target named is T1, human amylin receptor 3 (hAMYR3), hCTR2 …. The assay can be described thus: cell-based or functional assay. The source holds these as a separate data set.

Like-named read-outs stand apart in the source and are kept apart here. *1 amine or outer side, *2 acyl side, *3 side chain or, on linkers, in order; H or OH if unused. Bridges are numbered along the chain shown (N, C = ends). [ ]: non-standard residue; d: D form. The star is where a group is joined. C20 diacid = O=C(O)CCCCCCCCCCCCCCCCCCC(=O)*; γGlu = O=C(O)[C@H](CCC(=O)[*:2])N[*:1]; Hyp = O=C(O)[C@@H]1C[C@@H](O)CN1; NMeI = CC[C@H](C)[C@H](NC)C(=O)O; Aad = N[C@@H](CCCC(=O)O)C(=O)O; Orn = NCCC[C@H](N)C(=O)O; Sar = CNCC(=O)O

B1: [19CD]-isoGlu-R-C( )-GTAT-C( )-ATERLAHFLTRSSF-Gly(Me)-A-Ile(Me)-LSSTEVGSSTP-NH2 (Compd. 46) (peptide)
peptide: {C20 diacid}-[γGlu]RCGTATCATERLAHFLTRSSF[Sar]A[NMeI]LSSTEVGSSTP-NH2
modifications: disulfide 3-8
SMILES: CC[C@H](C)[C@@H](C(=O)N[C@@H](CC(C)C)C(=O)N[C@@H](CO)C(=O)N[C@@H](CO)C(=O)N[C@H](C(=O)N[C@@H](CCC(=O)O)C(=O)N[C@H](C(=O)NCC(=O)N[C@@H](CO)C(=O)N[C@@H](CO)C(=O)N[C@H](C(=O)N1CCC[C@H]1C(N)=O)[C@@H](C)O)C(C)C)[C@@H](C)O)N(C)C(=O)[C@H](C)NC(=O)CN(C)C(=O)[C@H](Cc1ccccc1)NC(=O)[C@H](CO)NC(=O)[C@H](CO)NC(=O)[C@H](CCCNC(=N)N)NC(=O)[C@@H](NC(=O)[C@H](CC(C)C)NC(=O)[C@H](Cc1ccccc1)NC(=O)[C@H](Cc1c[nH]cn1)NC(=O)[C@H](C)NC(=O)[C@H](CC(C)C)NC(=O)[C@H](CCCNC(=N)N)NC(=O)[C@H](CCC(=O)O)NC(=O)[C@@H](NC(=O)[C@H](C)NC(=O)[C@@H]1CSSC[C@H](NC(=O)[C@H](CCCNC(=N)N)NC(=O)CC[C@H](NC(=O)CCCCCCCCCCCCCCCCCCC(=O)O)C(=O)O)C(=O)NCC(=O)N[C@@H]([C@@H](C)O)C(=O)N[C@@H](C)C(=O)N[C@@H]([C@@H](C)O)C(=O)N1)[C@@H](C)O)[C@@H](C)O
For B1, the “hAMYR3 EC50 (nM); cAMP induction” value in assay [1] was 0.14 nM.

B2: [19CD]-isoGlu-R-C( )-GTAT-C( )-ATERLAHFLTRSSF-Gly(Me)-A-Ile(Me)-LSSTEVGS-Orn-TP-NH2 (Compd. 47) (peptide)
peptide: {C20 diacid}-[γGlu]RCGTATCATERLAHFLTRSSF[Sar]A[NMeI]LSSTEVGS[Orn]TP-NH2
modifications: disulfide 3-8
SMILES: CC[C@H](C)[C@@H](C(=O)N[C@@H](CC(C)C)C(=O)N[C@@H](CO)C(=O)N[C@@H](CO)C(=O)N[C@H](C(=O)N[C@@H](CCC(=O)O)C(=O)N[C@H](C(=O)NCC(=O)N[C@@H](CO)C(=O)N[C@@H](CCCN)C(=O)N[C@H](C(=O)N1CCC[C@H]1C(N)=O)[C@@H](C)O)C(C)C)[C@@H](C)O)N(C)C(=O)[C@H](C)NC(=O)CN(C)C(=O)[C@H](Cc1ccccc1)NC(=O)[C@H](CO)NC(=O)[C@H](CO)NC(=O)[C@H](CCCNC(=N)N)NC(=O)[C@@H](NC(=O)[C@H](CC(C)C)NC(=O)[C@H](Cc1ccccc1)NC(=O)[C@H](Cc1c[nH]cn1)NC(=O)[C@H](C)NC(=O)[C@H](CC(C)C)NC(=O)[C@H](CCCNC(=N)N)NC(=O)[C@H](CCC(=O)O)NC(=O)[C@@H](NC(=O)[C@H](C)NC(=O)[C@@H]1CSSC[C@H](NC(=O)[C@H](CCCNC(=N)N)NC(=O)CC[C@H](NC(=O)CCCCCCCCCCCCCCCCCCC(=O)O)C(=O)O)C(=O)NCC(=O)N[C@@H]([C@@H](C)O)C(=O)N[C@@H](C)C(=O)N[C@@H]([C@@H](C)O)C(=O)N1)[C@@H](C)O)[C@@H](C)O
With B2, the “hAMYR3 EC50 (nM); cAMP induction” value in assay [1] stood at 0.19 nM.

B3: [19CD]-isoGlu-R-C( )-GTAT-C( )-ATERLAHFLTRSSF-Gly(Me)-A-Ile(Me)-LSSTEVGSTT-Hyp-NH2 (Compd. 48) (peptide)
peptide: {C20 diacid}-[γGlu]RCGTATCATERLAHFLTRSSF[Sar]A[NMeI]LSSTEVGSTT[Hyp]-NH2
modifications: disulfide 3-8
SMILES: CC[C@H](C)[C@@H](C(=O)N[C@@H](CC(C)C)C(=O)N[C@@H](CO)C(=O)N[C@@H](CO)C(=O)N[C@H](C(=O)N[C@@H](CCC(=O)O)C(=O)N[C@H](C(=O)NCC(=O)N[C@@H](CO)C(=O)N[C@H](C(=O)N[C@H](C(=O)N1C[C@H](O)C[C@H]1C(N)=O)[C@@H](C)O)[C@@H](C)O)C(C)C)[C@@H](C)O)N(C)C(=O)[C@H](C)NC(=O)CN(C)C(=O)[C@H](Cc1ccccc1)NC(=O)[C@H](CO)NC(=O)[C@H](CO)NC(=O)[C@H](CCCNC(=N)N)NC(=O)[C@@H](NC(=O)[C@H](CC(C)C)NC(=O)[C@H](Cc1ccccc1)NC(=O)[C@H](Cc1c[nH]cn1)NC(=O)[C@H](C)NC(=O)[C@H](CC(C)C)NC(=O)[C@H](CCCNC(=N)N)NC(=O)[C@H](CCC(=O)O)NC(=O)[C@@H](NC(=O)[C@H](C)NC(=O)[C@@H]1CSSC[C@H](NC(=O)[C@H](CCCNC(=N)N)NC(=O)CC[C@H](NC(=O)CCCCCCCCCCCCCCCCCCC(=O)O)C(=O)O)C(=O)NCC(=O)N[C@@H]([C@@H](C)O)C(=O)N[C@@H](C)C(=O)N[C@@H]([C@@H](C)O)C(=O)N1)[C@@H](C)O)[C@@H](C)O
B3: the “hAMYR3 EC50 (nM); cAMP induction” value in assay [1] is 0.26 nM.

B4: [19CD]-isoGlu-R-C( )-GTAT-C( )-ATERLA-Aad-FLQRSSF-Gly(Me)-A-Ile(Me)-LSSTEVGSNT-Hyp-NH2 (Compd. 55) (peptide)
peptide: {C20 diacid}-[γGlu]RCGTATCATERLA[Aad]FLQRSSF[Sar]A[NMeI]LSSTEVGSNT[Hyp]-NH2
modifications: disulfide 3-8
SMILES: CC[C@H](C)[C@@H](C(=O)N[C@@H](CC(C)C)C(=O)N[C@@H](CO)C(=O)N[C@@H](CO)C(=O)N[C@H](C(=O)N[C@@H](CCC(=O)O)C(=O)N[C@H](C(=O)NCC(=O)N[C@@H](CO)C(=O)N[C@@H](CC(N)=O)C(=O)N[C@H](C(=O)N1C[C@H](O)C[C@H]1C(N)=O)[C@@H](C)O)C(C)C)[C@@H](C)O)N(C)C(=O)[C@H](C)NC(=O)CN(C)C(=O)[C@H](Cc1ccccc1)NC(=O)[C@H](CO)NC(=O)[C@H](CO)NC(=O)[C@H](CCCNC(=N)N)NC(=O)[C@H](CCC(N)=O)NC(=O)[C@H](CC(C)C)NC(=O)[C@H](Cc1ccccc1)NC(=O)[C@H](CCCC(=O)O)NC(=O)[C@H](C)NC(=O)[C@H](CC(C)C)NC(=O)[C@H](CCCNC(=N)N)NC(=O)[C@H](CCC(=O)O)NC(=O)[C@@H](NC(=O)[C@H](C)NC(=O)[C@@H]1CSSC[C@H](NC(=O)[C@H](CCCNC(=N)N)NC(=O)CC[C@H](NC(=O)CCCCCCCCCCCCCCCCCCC(=O)O)C(=O)O)C(=O)NCC(=O)N[C@@H]([C@@H](C)O)C(=O)N[C@@H](C)C(=O)N[C@@H]([C@@H](C)O)C(=O)N1)[C@@H](C)O
In the case of B4, the “hAMYR3 EC50 (nM); cAMP induction” value in assay [1] and in assay [2] was 0.08 nM each time.

B5: [19CD]-isoGlu-R-C( )-NTAT-C( )-ATQRLADFLQRSSF-Gly(Me)-A-Ile(Me)-LSSTEVGSNT-Hyp-NH2 (Compd. 49) (peptide)
peptide: {C20 diacid-γGlu}-RCNTATCATQRLADFLQRSSF[Sar]A[NMeI]LSSTEVGSNT[Hyp]-NH2
modifications: disulfide 2-7
SMILES: CC[C@H](C)[C@@H](C(=O)N[C@@H](CC(C)C)C(=O)N[C@@H](CO)C(=O)N[C@@H](CO)C(=O)N[C@H](C(=O)N[C@@H](CCC(=O)O)C(=O)N[C@H](C(=O)NCC(=O)N[C@@H](CO)C(=O)N[C@@H](CC(N)=O)C(=O)N[C@H](C(=O)N1C[C@H](O)C[C@H]1C(N)=O)[C@@H](C)O)C(C)C)[C@@H](C)O)N(C)C(=O)[C@H](C)NC(=O)CN(C)C(=O)[C@H](Cc1ccccc1)NC(=O)[C@H](CO)NC(=O)[C@H](CO)NC(=O)[C@H](CCCNC(=N)N)NC(=O)[C@H](CCC(N)=O)NC(=O)[C@H](CC(C)C)NC(=O)[C@H](Cc1ccccc1)NC(=O)[C@H](CC(=O)O)NC(=O)[C@H](C)NC(=O)[C@H](CC(C)C)NC(=O)[C@H](CCCNC(=N)N)NC(=O)[C@H](CCC(N)=O)NC(=O)[C@@H](NC(=O)[C@H](C)NC(=O)[C@@H]1CSSC[C@H](NC(=O)[C@H](CCCNC(=N)N)NC(=O)CC[C@H](NC(=O)CCCCCCCCCCCCCCCCCCC(=O)O)C(=O)O)C(=O)N[C@@H](CC(N)=O)C(=O)N[C@@H]([C@@H](C)O)C(=O)N[C@@H](C)C(=O)N[C@@H]([C@@H](C)O)C(=O)N1)[C@@H](C)O
B5: in assay [1], the “hAMYR3 EC50 (nM); cAMP induction” value was found to be 0.15 nM.

B6: [19CD]-isoGlu-R-C( )-QTAT-C( )-ATERLAHFLQRSSNNF-Gly(Me)-A-Ile(Me)-LSSTEVGSNT-Hyp-NH2 (Compd. 99) (peptide)
peptide: {C20 diacid-γGlu}-RCQTATCATERLAHFLQRSSNNF[Sar]A[NMeI]LSSTEVGSNT[Hyp]-NH2
modifications: disulfide 2-7
SMILES: CC[C@H](C)[C@@H](C(=O)N[C@@H](CC(C)C)C(=O)N[C@@H](CO)C(=O)N[C@@H](CO)C(=O)N[C@H](C(=O)N[C@@H](CCC(=O)O)C(=O)N[C@H](C(=O)NCC(=O)N[C@@H](CO)C(=O)N[C@@H](CC(N)=O)C(=O)N[C@H](C(=O)N1C[C@H](O)C[C@H]1C(N)=O)[C@@H](C)O)C(C)C)[C@@H](C)O)N(C)C(=O)[C@H](C)NC(=O)CN(C)C(=O)[C@H](Cc1ccccc1)NC(=O)[C@H](CC(N)=O)NC(=O)[C@H](CC(N)=O)NC(=O)[C@H](CO)NC(=O)[C@H](CO)NC(=O)[C@H](CCCNC(=N)N)NC(=O)[C@H](CCC(N)=O)NC(=O)[C@H](CC(C)C)NC(=O)[C@H](Cc1ccccc1)NC(=O)[C@H](Cc1c[nH]cn1)NC(=O)[C@H](C)NC(=O)[C@H](CC(C)C)NC(=O)[C@H](CCCNC(=N)N)NC(=O)[C@H](CCC(=O)O)NC(=O)[C@@H](NC(=O)[C@H](C)NC(=O)[C@@H]1CSSC[C@H](NC(=O)[C@H](CCCNC(=N)N)NC(=O)CC[C@H](NC(=O)CCCCCCCCCCCCCCCCCCC(=O)O)C(=O)O)C(=O)N[C@@H](CCC(N)=O)C(=O)N[C@@H]([C@@H](C)O)C(=O)N[C@@H](C)C(=O)N[C@@H]([C@@H](C)O)C(=O)N1)[C@@H](C)O
Turning to B6, the “hAMYR3 EC50 (nM); cAMP induction” value in assay [2] was found to be 0.59 nM.

The values above are taken from US20160272693A1 (ZEALAND PHARMA A S, published 2016).
